Test results published in the nanobody polyreactivity screen of Harvey et al. (2022).

assay: yeast display, Sf9 membrane polyspecificity reagent, FACS + sequencing; frameworks hold sequencing errors
Summary of the method: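 A nanobody's polyreactivity label depends on the gate it was sorted from. Yeast display cells were stained with 10% biotinylated, detergent-solubilized Sf9 membrane reagent for 1 hour at 4 °C, enriched on streptavidin microbeads and sorted by FACS. The low and high (top ~1%) gates were set on anti-HA fluorescence for expression and streptavidin fluorescence for reagent binding.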

Row | Sequence | polyreactivity (PSR sort gate)
1 | QDQLVESGGGLVQAGGSLRLSCAASGITFYTYAMGWSRQAPGKERELVAAISRSGGSTYYADSVKGRITISRDNAKYTVYLQMNSLKPEDSAVYYCAAVYRGRDMDYWGLGTQVTVSS | high polyreactivity
2 | QDQLVESGGGLVQAGGSLRLSCAASGLIFIDYAMGWYRQAPGKERELVAAITRGGARTYYADSVKGRFTISRDNAKNTVYLQMNSLNPEDTAVYYCAADRPGSRYIDVDYWGQGTQVTVSS | high polyreactivity
3 | QDQLVESGGGLVQAGGSLRLSCAASGLIFLYAMGWYRQAPGKERELVAAISNGGSTYYADSVKGRFTISRDNAKNTVYLQMNSLKPEDTAVYYCAAKGVRRRYRPDMYYWGQGTQVTVSS | high polyreactivity
4 | QDQLVESGGGLVQAGGSLRLSCAASGLIFNVNNMGWYRQAPGKDRELVAAISWSGTSTYYADSVKGRFTISRDKAKNTVYLQMNSLKPEDTAVYYCAAYNHRWEYEYWGQGTQVTVSS | high polyreactivity
5 | QDQLVESGGGLVQAGGSLRLSCAASGLIFRIYAMGWYRQAAGKERELVAAITSGGTSTSYADSVKGRFSISRDNAKNTVYLQMNSLKPEDTAVYYCNARWSDRVRIGLDYWGQGTQVTVSS | high polyreactivity
6 | QDQLVESGGGLVQAGGSLRLSCAASGLIIRWYAMGWDRQAPGKERELVAAISGNGGRTYYADSVKGRFTISRDNASNTVYLQMNSLKPEDTAVYYCAAEYRRALGVDYWGQGTQVTVSW | high polyreactivity
7 | QDQLVESGGGLVQAGGSLRLSCAASGLTFDSYAMGWYRQAPGKERELVAAISWNTASTYYADSVKGRFTISRDNAKNTVYLQMNSLKPEDTAVYYCAAARSRRPHYDYWRQGTQVTVSS | high polyreactivity
8 | QDQLVESGGGLVQAGGSLRLSCAASGLTFEVYAMGWYRQAPGKERELVAAISSGGGSKYYADSVKGRFTISRDNAKNTVYLQMISLKPEDTAVYYCNAVAKLYYWRYDYLGQGTQVTVSS | low polyreactivity
9 | QDQLVESGGGLVQAGGSLRLSCAASGLTFRLYAMGSYRQAPAKEREWVAAITSSSGSTYYADSVKGRFTISRDTANYTVYLQMNSLKPEDTAVYYCNAVRYTTQTPNVDYGYWGLGTQVTVSS | high polyreactivity
10 | QDQLVESGGGLVQAGGSLRLSCAASGLTLLHYAMGWYRQAPGKERELVAAISTRGGSTYYADSVKGRFTISRDNAKNTVYLQMNSLKPEDTADYYCNALKGRPRGTAGYYRVEYWGQGTQVTVSS | high polyreactivity
11 | QDQLVESGGGLVQAGGSLRLSCAASGLTYYVYSMGWYRQAPGKERELVARITWSGGSTYYADSVKGRFTISRDNAKNTVYLQMNSVKAEDTAVYYSAAEWSEESDYWGQVTQVTVSS | low polyreactivity
12 | QDQLVESGGGLVQAGGSLRLSCAASGNIFKCKVMGWYRQAPGKERELVAAISRSGGRTYYADSVKGRFTISRDNAKNTVYLQMNSLKPVDTAVYYCNTKHRTKPTRPVDYWGQGTQVTVSS | high polyreactivity
13 | QDQLVESGGGLVQAGGSLRLSCAASGNIFWSNAMGWYRQAPVKERELVAGIRSTGGSTYYADSVKGRFTISRDNAKNTVYLQMNSLKPEDTAVYYCAAEHWYSTPWWTDDYWGQGTQVTLSS | high polyreactivity
14 | QDQLVESGGGLVQAGGSLRLSCAASGRIFNQYGMGWYRQAPGKERELVAAIRSGDSTNYADSVKGRFTISRDNAKNTVYLQMNSLKPEDTAVYYCARDRPGDYAGYDYWGQGTQVTVSS | low polyreactivity
15 | QDQLVESGGGLVQAGGSLRLSCAASGRIFPAYVMGWYRQAPGKERELVATIDNGGGTYYADSVKGRFTISRDNAKNTVYLQMNSLKPEDTAVYYCARDRHVRWGLKMDYWGQGTQVTVSS | low polyreactivity
16 | QDQLVESGGGLVQAGGSLRLSCAASGRIISLYAMGWYRQAPVKERDLVAAISRRSGNTNYADSVKGRFTISRDNAKNTVYLQMNSLKPEDTAVYYCAARPGAISSTSPYDYWGQGTQVTVSS | high polyreactivity
17 | QDQLVESGGGLVQAGGSLRLSCAASGRIVSDYAMGWYRQAPGKERELVARISRSDGSSYYADSVKGRFTISRDNAKNTVYLQMNSLKPEDTAVYYCAAQWTDGRRDHWWDKGFYYWGQGTQVTVSS | low polyreactivity
18 | QDQLVESGGGLVQAGGSLRLSCAASGRLFSQYAMGWYRQAPGKERELVAAISWRTGSTYYADSVKGRFTISRDNAKNTVYLQMNSLKPEDTAVYYCSAANAGRYPYNYSGQGTQVTVSS | high polyreactivity
19 | QDQLVESGGGLVQAGGSLRLSCAASGRNFPGYVMGWYRQAPGKERELVAVITSNGGITYYADSVKGRFTISRDNAKNTVYLQMNSLKPEDTAVYYCAAYEIYYEFDSWGQGTLVTVSS | low polyreactivity
20 | QDQLVESGGGLVQAGGSLRLSCAASGRTFDSYAMGWYRQAPGKERELVAAIDADSVKGRFTISRDNAKNTVYLQMNSLKPEVTAVYYCAKPSRWGWTGFYAYEYWGQGTQVTVSS | low polyreactivity
21 | QDQLVESGGGLVQAGGSLRLSCAASGRTFEGNAMGWYRQAPGKERELVAAITSGGRTNYADSVKGRFTISRDNAKNTVYLQMNSLKPEDTEVYYCANVYRSIGPNVSRYGLSYYYWGQGTQVTVSS | low polyreactivity
22 | QDQLVESGGGLVQAGGSLRLSCAASGRTFGEYAMGWYRQAPGKERELVAAISSTGSTYYADSVKGRFTISRDNAKNTVYLQMNSLKPEDTAVYDCAAEIVRYGDEYDYWGQGTQVTVSS | low polyreactivity

Row | Sequence | polyreactivity (PSR sort gate)
23 | QDQLVESGGGLVQAGGSLRLSCAASGRTFGVNAMGWYRQAPGKERELVASIRWNGGSTYYADSVKGRFTISRDNAKNTVYFQMNSLKPEDTAVYYCNAVRRYRSREFDYWGQGTQVNVSS | low polyreactivity
24 | QDQLVESGGGLVQAGGSLRLSCAASGRTFHSYVMGWYRQAPGKERELVAAISRSGGNTYYADSVKGRFTISRDNAKNTVYLQMNSLKPEDTAVYYCAAALSAYVKWDYYYWGQGTQVTVSS | low polyreactivity
25 | QDQLVESGGGLVQAGGSLRLSCAASGRTFIYYVMGWSRQAPGKERELVAAISLRGSSTRYADSVKGRFTISRDNAKNTVYLQMNSLKPEDTAVYYCAARPRLSRYDYWGQGTQVTVSS | high polyreactivity
26 | QDQLVESGGGLVQAGGSLRLSCAASGRTFRSYAMGWSRQAPGKERELVAAISTRGGSTYYADSVKGRFTISRDYAKNTVYLQMNSLKPEDTAVYYCAARGTPSARYGDWGQGTQVTVSS | high polyreactivity
27 | QDQLVESGGGLVQAGGSLRLSCAASGRTFSRYTMGWYRQAPGKERELVAAISKRGGSTYYADSVKGRLTISRDNAKNTVYLQMNSLKPADTAVYYCNAYGLVGLDGVKMYYWGQGTQVTVSS | high polyreactivity
28 | QDQLVESGGGLVQAGGSLRLSCAASGRTFTHYALGWYRQAPGKERELVAAISWSGGITYYADSVKGRFTISRDYAKNTVYLQMNSLKPEDTAVYYCAAEHYFSGYYYWGQGTQVTVSS | high polyreactivity
29 | QDQLVESGGGLVQAGGSLRLSCAASGRTFWRNAMGWSRQAPGKEREMVAAINSGGRTYYADAVKGRFTISRDNAKNTVYLQMNSLKPEDTAVYYCAVYVHRFLDGRVRSYRGDYWGQGTQVTVSS | high polyreactivity
30 | QDQLVESGGGLVQAGGSLRLSCAASGSIFARYAMGWYRQAPGKERELVAAINSTVSTNYADSVKGRFTISRDNAKNTVYLQMNSLKPEDTAVYYCAVDIVRGGRDSWGQGTQVTVSS | low polyreactivity
31 | QDQLVESGGGLVQAGGSLRLSCAASGSIFERYTMGWSRQAPGKERELVAAITTNGGSTYADSVKGRFTISRDNAKNTVYLQMNTLKPEDTADYYCNVDVYLYAKEYDYWGQGTQVTVSS | high polyreactivity
32 | QDQLVESGGGLVQAGGSLRLSCAASGSIFGGNTMGWYRQAPGKERELVAAISRSGGSTYYADSVKGRFTISRDNAKNTVYLQMNSLKPEDTEVYYCYRKQAGHAKGYDYWGQGTQVTVSS | high polyreactivity
33 | QDQLVESGGGLVQAGGSLRLSCAASGSIFNGNAMGWYRPAPGKERELVAAITRRGGRTFYADSVKGRFTISRDNAKNSVYLQMNSLKPEDTAVYYCNAYSKAVQGGYDYWGQGTQVTVSS | high polyreactivity
34 | QDQLVESGGGLVQAGGSLRLSCAASGSIFPDYTMGWYRQAPGKERELVPGNTWNGGGTYYADSVKGRITISRDNAKNTVYLQMYSLKPEDTAVYYCAAVWSGSRSTGAWGPYNYWGQGTQVTVSS | low polyreactivity
35 | QDQLVESGGGLVQAGGSLRLSCAASGSIFPGYAMGWYRKAPGKEREFVATITWSGGSTYYADSVKGRFTISRDNAKNTVYLQMNSLKPEDTAVYYCNADSNWYYQWNYYGLYDYWGQGTQVTVSS | low polyreactivity
36 | QDQLVESGGGLVQAGGSLRLSCAASGSIFRAYAMGWYRQAPGKERELVAAISRSGDSTYYADSVKGRFTISRDNAKNTVYLQMNSLKPEDTAVYYCAAQRKPYVRPSGPYKRRDYWGQGTQVTVSS | high polyreactivity
37 | QDQLVESGGGLVQAGGSLRLSCAASGSIFTDYAMGWYRQAPAKERELVAAITSSGGSTYYADSVKGRFTISRDYAKNTVYLQMKSLKTEDTAVYYCAADRITIYDYWGQGTQVTVSS | low polyreactivity
38 | QDQLVESGGGLVQAGGSLRLSCAASGSIFVNYAMGWYRQAPGKERELVAAISRSGGRTYYADSVKGRFTISRDSAKITVYLQMNSLIPEDTAVYYCNVDPVLRTIEGDYWGQGTQVTVSS | high polyreactivity
39 | QDQLVESGGGLVQAGGSLRLSCAASGSIFVRYAMGWYRQAPGKERELVAAITSSAGYTYYADSVKGRFTISRDNAKNTVNLQMNSLKPEDTAVYYCAAVRYDASKFYYWGAGTQVTVSS | high polyreactivity
40 | QDQLVESGGGLVQAGGSLRLSCAASGSIFYRNAMGWYRQAPGKERELVAAISSDGSTNYADSVKGRFTISRDNAKNTVYLQMNSLKPEDTAVYYCAAPWTQILDYWGQGTQVTVSS | low polyreactivity
41 | QDQLVESGGGLVQAGGSLRLSCAASGSMFDYYAMGWYRQAPGKERELVAAISGSGSRTYYADSVKGRFTISRVTAKNTVYIQMNRLKPEDTAFYYCAAESVVYDIVGYEYWYDYYWGLGTQVTVSS | high polyreactivity
42 | QDQLVESGGGLVQAGGSLRLSCAASGSTFDGYAMGWYRPAPGKERELVADITSGGSTYYADSVKGRFTISRDNAKNTVYLQMNSLKPEDTAVYYCAVEGWWDDYNSRAGEFNYWGQRTQVTVSS | low polyreactivity
43 | QDQLVESGGGLVQAGGSLRLSCAASGSTFGFYAMGWYRQAPGKERELVAAITTGGSTNYADSVKGRFTISRDNAKNTVYLQMNSLKPEDTAVYYCNADVYWNPYYDYDYWGQGTQVTVSS | high polyreactivity
